From patent US20210369854A1

What was measured:
[1] = target: human CD5 on cells (MOLT-4 human T lymphoblast cell line; primary human T-cells) (human) (UniProt P06127); assay: flow cytometry on primary human T-cells, antibody titration, fluorophore-conjugated (AF488) secondary anti-IgG, MFI
[2] = target: purified human CD5 ectodomain (human) (UniProt P06127); assay: BLI (Octet Red96), antibody on anti-human Fc biosensors, 50 nM CD5 ectodomain, 25 C

B1: anti-CD5 antibody 5D7 hIgG1 (humanized version of murine antibody 5D7) (antibody, V domains shown)
VH: QVTLKESGPVLVKPTETLTLTCTFSGFSLSTSGMGVGWIRQAPGKGLEWVAHIWWDDDVYYNPSLKSRLTITKDASKDQVSLKLSSVTAADTAVYYCVRRRATGTGFDYWGQGTLVTVSS
VL: NIVMTQSPSSLSASVGDRVTITCQASQDVGTAVAWYQQKPDQSPKLLIYWTSTRHTGVPDRFTGSGSGTDFTLTISSLQPEDIATYFCHQYNSYNTFGSGTKLEIK
EC50 (read off the curve) [1]: 0.03 nM | Response (nm) [2]: 0.67 nm
